The supplement of paper PMC7877785
± gives the uncertainty stated by the source.

Assay: self-splicing fitness, log relative to wild type (ln ratio); higher = more splicing; Tetrahymena group I intron in knt gene, E. coli kanamycin selection, DiMSum; sequences stand for … in CUCUCU…GGAGGGAAAAGUUAUCAGGCAUGCACCUGGUAGCUAGUCUUUAAACCAAUAGAUUGCAUCGGUUUAAAAGGCAAGACCGUCAAAUUGCGGGAAAGGGGUCAACAGCCGUUCAGUACCAAGUCUCAGGGGAAACUUUGAGAUGGCCUUGCAAAGGGUAUGGUAAUAAGCUGACGGACAUGGUCCUAACCACGCAGCCAAGUCCUAAGUCAACAGAUCUUCUGUUGAUAUGGAUGCAGUUCACAGACUAAAUGUCGGUCGGGGAAGAUGUAUUCUUCUCAUAAGAUAUAGUCGGACCUCUCCUUAAUGGGAGCUAGCGGAUGAAGUGAUGCAACACUGGAGCCGCUGGGAACUAAUUUGUAUGCGAAAGUAUAUUGAUUAGUUUUGGAGUACUCGUGGUCG
Procedure, shortened: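 Colonies from six replicate transformations of E. coli BL21(DE3) were pooled and amplicon-sequenced on an Illumina HiSeq 2500. The library placed an intron with all eight P1ex-region nucleotides randomised inside the knt kanamycin-resistance gene on pET-22b(+), and cells grew overnight at 37°C or 30°C on LB agar with or without 25 μg/mL kanamycin (plus 100 μg/mL carbenicillin, 50 μM IPTG, 0.2% rhamnose). Fitness is the DiMSum error-weighted combination of wild-type-normalised replicate fold changes, kanamycin versus none.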

Sequence | self-splicing fitness (ln) (30 °C) | self-splicing fitness (ln) (37 °C)
UACCAGCAAUAUUACGGACA | -0.227 ± 0.061 | 0.423 ± 0.076
UACCAGCAAUAUUACGGACG | -0.177 ± 0.055 | 0.479 ± 0.088
UACCAGCAAUAUUACGGCAU | -1.37 ± 0.089 | -0.029 ± 0.11
UACCAGCAAUAUUACGGCCU | -0.232 ± 0.078 | 0.212 ± 0.094
UACCAGCAAUAUUACGGCGC | -1.32 ± 0.073 | -0.174 ± 0.097
UACCAGCAAUAUUACGGCUC | -0.179 ± 0.074 | -0.0529 ± 0.096
UACCAGCAAUAUUACGGCUU | -0.562 ± 0.061 | 0.59 ± 0.097
UACCAGCAAUAUUACGGGCA | -0.875 ± 0.054 | 0.469 ± 0.087
UACCAGCAAUAUUACGGUGU | -3.64 ± 0.14 | -2.36 ± 0.13
UACCAGCAAUAUUACGGUUG | -1.64 ± 0.067 | -0.791 ± 0.084
UACCAGCAAUAUUACGUACC | -2.33 ± 0.11 | -2.23 ± 0.17
UACCAGCAAUAUUACGUAUA | -0.615 ± 0.058 | -0.199 ± 0.072
UACCAGCAAUAUUACGUCAC | -4.46 ± 0.42 | -2.32 ± 0.35
UACCAGCAAUAUUACGUGCA | -0.43 ± 0.065 | 0.246 ± 0.09
UACCAGCAAUAUUACGUUGC | -4.31 ± 0.32 | -2.6 ± 0.25
UACGAGCAAUAUUACGACCG | -1.8 ± 0.45 | –
UACGAGCAAUAUUACGAUAG | -3.66 ± 0.47 | -2.31 ± 0.42
UACGAGCAAUAUUACGCAAA | -2.36 ± 0.28 | -1.67 ± 0.47
UACGAGCAAUAUUACGCGAG | -2.49 ± 0.15 | -0.597 ± 0.14

Sequence | self-splicing fitness (ln) (30 °C) | self-splicing fitness (ln) (37 °C)
UACGAGCAAUAUUACGCGGG | -2.83 ± 0.22 | -2.41 ± 0.45
UACGAGCAAUAUUACGCUGA | -3 ± 0.26 | -2.02 ± 0.24
UACGAGCAAUAUUACGCUUG | -2.75 ± 0.32 | –
UACGAGCAAUAUUACGGACC | -3.28 ± 0.24 | -3.19 ± 0.43
UACGAGCAAUAUUACGGGUA | -1.64 ± 0.14 | -1.43 ± 0.14
UACGAGCAAUAUUACGGUCA | -1.39 ± 0.11 | -0.173 ± 0.11
UACGAGCAAUAUUACGGUGG | -3.62 ± 0.14 | -2.13 ± 0.11
UACGAGCAAUAUUACGGUUG | -2.72 ± 0.13 | -2.11 ± 0.16
UACGAGCAAUAUUACGUACC | – | -1.17 ± 0.36
UACGAGCAAUAUUACGUCCU | -2.87 ± 0.22 | -1.38 ± 0.19
UACGAGCAAUAUUACGUGAG | -3.28 ± 0.16 | -3.58 ± 0.24
UACGAGCAAUAUUACGUGCG | -3.07 ± 0.15 | -1.97 ± 0.18
UACGAGCAAUAUUACGUGUA | -3.39 ± 0.2 | -2.21 ± 0.16
UACGAGCAAUAUUACGUUCG | -3.48 ± 0.25 | -2.76 ± 0.25
UACGAGCAAUAUUACGUUUC | -2.65 ± 0.32 | -1.69 ± 0.24
UACUAGCAAUAUUACGAAAA | -2.6 ± 0.35 | -2.26 ± 0.42
UACUAGCAAUAUUACGAAGU | -3.85 ± 0.42 | -2.32 ± 0.41
UACUAGCAAUAUUACGAGCA | -0.343 ± 0.12 | 0.447 ± 0.15
UACUAGCAAUAUUACGCAUA | -1.99 ± 0.14 | -0.0544 ± 0.09
